± gives the standard error. Fewer inactive variants are shown than the library holds.
B1: glmS ribozyme (parent)
chain: AUAAAAGCGCCAGAACUACAGAAAUGUAGUUGACGAGGAGGAGGUUUAUCGAAUUUUCGGCGGAUGCCUCCAAA

Columns and labels:
Conditions in all cases: with glucosamine-6-phosphate
[1] = variants of: B1; experiment: self-cleavage kobs at 160 uM GlcN6P; higher = faster cleavage; RNA array
Outline: (§1)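 E. coli RNA polymerase transcribed barcoded ribozyme variants in situ on sequenced MiSeq chips, which were tracked via a hybridised Cy3 probe at 37 °C. Tiles were imaged over ~14 h after glucosamine-6-phosphate (40 μM to 10 mM) in HEPES/KCl/Mg(OAc)2 buffer was flowed in. Normalised per-tile medians were fit to one- or two-exponential decays for kobs, and kcat and KM came from weighted Michaelis–Menten fits.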

[2] = variants of: B1; experiment: self-cleavage kobs at 640 uM GlcN6P; higher = faster cleavage; RNA array
Outline: as §1

[3] = variants of: B1; experiment: self-cleavage kobs at 2500 uM GlcN6P; higher = faster cleavage; RNA array
Outline: as §1

[4] = variants of: B1; experiment: self-cleavage kobs at 10000 uM GlcN6P; higher = faster cleavage; RNA array
Outline: as §1

| Variant | self-cleavage kobs at 160 uM GlcN6P [1] [s⁻¹] | self-cleavage kobs at 640 uM GlcN6P [2] [s⁻¹] | self-cleavage kobs at 2500 uM GlcN6P [3] [s⁻¹] | self-cleavage kobs at 10000 uM GlcN6P [4] [s⁻¹] |
| --- | --- | --- | --- | --- |
| AUAAAAGCGACAGAACUACAGAAAUGUAGUUGACGAGGAGGAGGUUUAUGGAAUUUUCGGCGGAGGCCUCCAAA | 0.000143 ± 2.6e-05 | 0.000121 ± 4.2e-05 | 4.21e-05 ± 1.9e-05 |  |
| AUAAAAGCGCCAGAACUACAGAAAUGUAGUUGACGAAGAGGAGAUCUUUCGAAUUUUCGGCGGAUGCCUCUAAA | < 1e-05 | < 1e-05 | < 1e-05 |  |
| AUAAAAGCGACAGAACUACAGAAAUGUAGUUGAUGAGGAGGAGGUUUAUGGAAUUUUCGGCUGAUGCCUCCAAA | 0.00045 ± 0.00013 | 0.000144 ± 4.8e-05 | 8.51e-05 ± 2.1e-05 |  |
| AUAAAAGCGCCAGAACUACAGAAAUGUAGUUGACGAGGAGCAGGUGUAUCGAAUUUCCGGCGGAUGCCUCCAAA | < 1e-05 | < 1e-05 | < 1e-05 |  |
| AUAAAAGCGCCAGAACUACAGAAAUGUAGUUGACGAGGAGGAGGUUUAUCUAAUUUUCGGGGGAUGCCUCGAAA | 0.000101 ± 2.2e-05 | 0.000494 ± 0.00014 | 9.55e-05 ± 2.1e-05 |  |
| AUAAAAGCGCCAGAACUACAGAAAUGUAGUUGACGAGGAGGAGGCUUAUCGAAUUUUCGGCUGAUGCCUCCAAA | < 1e-05 | < 1e-05 | < 1e-05 | < 1e-05 |
| AUAAAGGCGCCAGAAUUACAGAAAUGUAGUUGACGAGGCGGAGGUUUAUCGAAUUUUCGGCGGAUGCCUCCAAA | < 1e-05 |  |  | 6.06e-05 ± 9e-06 |
| AUAAAAUCGCCAGAACUACAGAAAUGUAGUUGACGAGGAGGAGGUUUAGCGAAUUUUCGGCGGAUGCCUCCAAA | < 1e-05 | < 1e-05 | < 1e-05 | < 1e-05 |
| AUAAAAGCUCCAGAACUACAGAAAUGUAGUUGACGAGGAGGAGGUUUAUCGACUUUUCGGCGGAUGCCUCCAAA | < 1e-05 | < 1e-05 |  | < 1e-05 |
| AUAAAAGCGCCAGUACUACAGAAAUGUAGCUGACGAGGAGGACGUUUAUCGAAUUUUCGGCGGAUCCCUCCAAA | < 1e-05 |  |  |  |
| AUAAAGACGCCAGAACUACAGAAAUGUAGUUGACGAGGAGGACGUUUAUCGAAUUUUCGGCGGAUGCCUCCAAA | < 1e-05 | < 1e-05 | < 1e-05 | < 1e-05 |
| AUAAAAGCUUCAGAAUUACAGAAAUGUAGUUGACGAGGAGGAGGUUUAUCGAAUUUUCGGCGGAUGCCUCCAAA | < 1e-05 |  | < 1e-05 |  |
| AUAAAAGCGCCGGAACUACAGAAAUGUAGUUGACGAGGAGGAGGUUUAUCGUAUUUUCGGCGGAUUCCUCCAAA | < 1e-05 | < 1e-05 |  |  |
| AUAAAAGCGCCAGAACUACAGAAAUGUAGUUGACGAGGACGAGGUUUAUCGAAUUUUCGGCGGUUGCCUCCAAA | < 1e-05 | < 1e-05 |  |  |
| AUAAAAGCGCGAGAACUACAGAAAUGUAGUUGACGAGGAGGAGGUUUAGCGAAUUUCCGGCGGAUGCCUCCAAA | < 1e-05 |  |  |  |
| AUAAAAGCGCCAGAACUACAGAAAUGUAGUUGUCGAGGAGGAGGUUUAUCUAAUUUUUGGCGGAUGCCUCCAAA | < 1e-05 |  |  |  |

| Variant | self-cleavage kobs at 160 uM GlcN6P [1] [s⁻¹] | self-cleavage kobs at 640 uM GlcN6P [2] [s⁻¹] | self-cleavage kobs at 2500 uM GlcN6P [3] [s⁻¹] | self-cleavage kobs at 10000 uM GlcN6P [4] [s⁻¹] |
| --- | --- | --- | --- | --- |
| AUAAAAGCGCCAGAACUACAGAAAUGUAGUUGACGAAGAGGAGGUGUAUCGAGUUUUCGGAGGAUGCCUACAAA | < 1e-05 |  |  |  |
| AUAAAAGGGCCAGAACUACAGAAAUGUAGUUGACGAGGAGGAGGUCUAUCGACUUUUCGGCGGAUGCCUCCAAA | < 1e-05 |  | < 1e-05 |  |
| AUAAAAGCGCCAGAACUACAGAAAUGUAGUUGACAAGGAGGAGGUUUAUGGAAUUUUCCGCGGAGGCCUCCAAA | 4.37e-05 ± 1.9e-05 | < 1e-05 |  |  |
| AUAAAAGCGCCAGAACUACAGAAAUGUAUUUCACGGGGAGGAGGUUUAUCGAAUUUUCGGCGGAUGCCUCCAAA | < 1e-05 | < 1e-05 |  |  |
| AUAAAAGCGCCAGAACUACAGAAAUGUAGUUGACGAGGAGGAGGCUUAUCGACUUUUCGGCGGAUGUCUCCAAA | < 1e-05 | 5.23e-05 ± 1.6e-05 | 6.03e-05 ± 1.8e-05 |  |
| AUAAAAGCGCUAGAACUACAGAAAUGUAGUUGACGAGGAGCAGGUUUAUCGUAUUUUCGGCGGAUGCCUCCAAA | < 1e-05 | < 1e-05 | < 1e-05 |  |
| AUAAAAGCGCCUGAACUACAGAAAUGUAGUUGACGAGGAGGAGGUUUAUCGAAUUGGAGGCGGGUGCCUCCAAA | 5.96e-05 ± 2.1e-05 | 0.000137 ± 2.4e-05 | 5.56e-05 ± 2.7e-05 |  |
| AUAAAAGCGCCAGAACUACAGAAAUGUAGUUGUCGCGGAGGAAGUUUAUCGAAUUUUCGGCGGAUGCCUGCAAA | < 1e-05 | < 1e-05 | < 1e-05 |  |
| AUAAAAGCGCCAGAACUACAGAAAUGUAGUUGACCAGGAGGAGGUUUAUCGAACUUUCGGCGAAUGCCUCCAAA | < 1e-05 |  | < 1e-05 |  |
| AUAAAAGCGCCAGCACUACAGAAAUGUAGUUGACGAGGAGGAGGUUUAUGGAAUUUUCGGCGGAUGCCUCCAAA | 5.43e-05 ± 1.5e-05 | 0.000625 ± 0.00028 | 4.32e-05 ± 1.3e-05 |  |
| AUAAAAGCGCCAGAACUACAGAAAUGUAGUUGACGAGGAUGAGGUUUAUCGAAUUUUCGGCGGUGGCCUCGAAA | < 1e-05 | < 1e-05 |  |  |
| AUAAAAGCGCCAGAACUACAGAAAUGUAGUUGACCGGGAGGAGGUUUAACGAAUUUUCGGCGGAUGCCUCCAAA | < 1e-05 | < 1e-05 | < 1e-05 |  |
| AUAAAAGCGCCAGAACUACAGAAAUGUAGUUGAAGAUGAGGAGGUUUGUCGAAUUUUCGGCGGAUGCCUCCAAA | < 1e-05 |  |  |  |
| AUAAAAGCGCCAGUACUACAGAAAUGUAGUUGACGAGGAGGAGGUUUAUCGAAUUUCCGGCGGAUUCCUCCAAA | < 1e-05 |  |  |  |
| AUAAAAGCGCUAGAACUACAGAAAUGUAGUUCACGAGGAGGGGGUUUAUCGAAUUUUCUGCGGAUGCCUCCAAA | < 1e-05 |  | < 1e-05 |  |

Source: the supplement of paper PMC7125110
